± gives the uncertainty stated by the source.
Test: self-splicing fitness, log relative to wild type (ln ratio); higher = more splicing; Tetrahymena group I intron in knt gene, E. coli kanamycin selection, DiMSum; sequences stand for … in CUCUCU…GGAGGGAAAAGUUAUCAGGCAUGCACCUGGUAGCUAGUCUUUAAACCAAUAGAUUGCAUCGGUUUAAAAGGCAAGACCGUCAAAUUGCGGGAAAGGGGUCAACAGCCGUUCAGUACCAAGUCUCAGGGGAAACUUUGAGAUGGCCUUGCAAAGGGUAUGGUAAUAAGCUGACGGACAUGGUCCUAACCACGCAGCCAAGUCCUAAGUCAACAGAUCUUCUGUUGAUAUGGAUGCAGUUCACAGACUAAAUGUCGGUCGGGGAAGAUGUAUUCUUCUCAUAAGAUAUAGUCGGACCUCUCCUUAAUGGGAGCUAGCGGAUGAAGUGAUGCAACACUGGAGCCGCUGGGAACUAAUUUGUAUGCGAAAGUAUAUUGAUUAGUUUUGGAGUACUCGUGGUCG
Outline: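 Colonies from six replicate transformations of E. coli BL21(DE3) were pooled and amplicon-sequenced on an Illumina HiSeq 2500. The library placed an intron with all eight P1ex-region nucleotides randomised inside the knt kanamycin-resistance gene on pET-22b(+), and cells grew overnight at 37°C or 30°C on LB agar with or without 25 μg/mL kanamycin (plus 100 μg/mL carbenicillin, 50 μM IPTG, 0.2% rhamnose). Fitness is the DiMSum error-weighted combination of wild-type-normalised replicate fold changes, kanamycin versus none.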

Row | Sequence | self-splicing fitness (ln) (30 °C) | self-splicing fitness (ln) (37 °C)
1 | UUCUAGCAAUAUUACGUCAA | -1.21 ± 0.13 | -1.43 ± 0.16
2 | AACAAGCAAUAUUACGCGAA | -1.78 ± 0.073 | -0.546 ± 0.084
3 | GGUUAGCAAUAUUACGCGUG | -0.908 ± 0.051 | -0.592 ± 0.063
4 | CCGUAGCAAUAUUACGCCAC | -1.95 ± 0.22 | -1.78 ± 0.33
5 | GAUAAGCAAUAUUACGGUUU | -1.22 ± 0.056 | -0.908 ± 0.069
6 | CCCCAGCAAUAUUACGAGAA | -3.4 ± 0.29 | -2.37 ± 0.23
7 | ACACAGCAAUAUUACGUACU | -0.335 ± 0.05 | 0.175 ± 0.065
8 | GGUUAGCAAUAUUACGUCUC | -0.348 ± 0.15 | -0.0912 ± 0.18
9 | CAAAAGCAAUAUUACGACCC | -1.54 ± 0.15 | -1.72 ± 0.32
10 | CACAAGCAAUAUUACGACUU | -3.49 ± 0.18 | -2.47 ± 0.21
11 | GGAUAGCAAUAUUACGGUGC | -1.85 ± 0.48 | -2.5 ± 0.49
12 | CACAAGCAAUAUUACGCGGA | -3.17 ± 0.13 | -1.08 ± 0.084
13 | UGUUAGCAAUAUUACGCCUC | – | -0.642 ± 0.41
14 | AAAUAGCAAUAUUACGGGGG | -2.94 ± 0.36 | -2.11 ± 0.31
15 | CUAAAGCAAUAUUACGCGCU | -3.15 ± 0.16 | -2.06 ± 0.23
16 | CUUGAGCAAUAUUACGAUCG | -1.2 ± 0.16 | -0.798 ± 0.23
17 | AAAUAGCAAUAUUACGAGGU | -2.99 ± 0.26 | -1.28 ± 0.19
18 | GUGAAGCAAUAUUACGUGAG | -1.26 ± 0.076 | -0.555 ± 0.097
19 | AAACAGCAAUAUUACGGUAA | -2.28 ± 0.1 | -0.892 ± 0.083
20 | GGAAAGCAAUAUUACGCCCU | -1.16 ± 0.21 | -1.25 ± 0.21
21 | UCGAAGCAAUAUUACGUCGG | -2.65 ± 0.17 | -3.7 ± 0.31
22 | CUUAAGCAAUAUUACGCGGC | -2.93 ± 0.24 | -2.48 ± 0.27
23 | CAGCAGCAAUAUUACGGGAA | -3.17 ± 0.33 | -1.58 ± 0.16
24 | UAGAAGCAAUAUUACGCCCA | -0.128 ± 0.15 | 0.21 ± 0.25
25 | AUAGAGCAAUAUUACGGAGA | -1.97 ± 0.26 | -2.31 ± 0.39
26 | UUUCAGCAAUAUUACGGCGA | -0.344 ± 0.093 | 0.167 ± 0.13

Row | Sequence | self-splicing fitness (ln) (30 °C) | self-splicing fitness (ln) (37 °C)
27 | GCCCAGCAAUAUUACGGUUC | -0.85 ± 0.043 | -0.0899 ± 0.059
28 | ACAUAGCAAUAUUACGGGUA | -2.8 ± 0.19 | -2.35 ± 0.14
29 | AAGGAGCAAUAUUACGGAUA | -3.9 ± 0.35 | -1.99 ± 0.29
30 | GACCAGCAAUAUUACGAAUA | -1.74 ± 0.11 | -0.549 ± 0.11
31 | ACUGAGCAAUAUUACGCCGC | -3.95 ± 0.34 | -1.23 ± 0.49
32 | CUACAGCAAUAUUACGAUUC | -4.31 ± 0.43 | -1.6 ± 0.24
33 | AUUAAGCAAUAUUACGCAUA | -1.98 ± 0.24 | -1.32 ± 0.22
34 | CGCAAGCAAUAUUACGUAGC | -3.3 ± 0.17 | -1.17 ± 0.18
35 | GUGCAGCAAUAUUACGCUCU | -1.77 ± 0.14 | -0.404 ± 0.15
36 | GGUAAGCAAUAUUACGGUGU | -1.81 ± 0.1 | -0.484 ± 0.11
37 | CAGAAGCAAUAUUACGUAGU | -4.18 ± 0.24 | -1.97 ± 0.17
38 | CGAGAGCAAUAUUACGAAAA | – | -2.18 ± 0.37
39 | CGCAAGCAAUAUUACGGCGC | -2.37 ± 0.12 | -1.73 ± 0.18
40 | GCGCAGCAAUAUUACGCCAU | -3.8 ± 0.38 | -1.84 ± 0.3
41 | UAGAAGCAAUAUUACGACAC | -1.77 ± 0.43 | -2.07 ± 0.25
42 | GAUGAGCAAUAUUACGUAAG | -3.37 ± 0.24 | -2.11 ± 0.2
43 | GGAGAGCAAUAUUACGCGAC | -2.83 ± 0.21 | -2.22 ± 0.34
44 | CAUUAGCAAUAUUACGAUCA | -2.81 ± 0.33 | -1.46 ± 0.23
45 | AGUCAGCAAUAUUACGUCCU | -0.258 ± 0.1 | -0.279 ± 0.15
46 | CGAGAGCAAUAUUACGCAGU | -1.96 ± 0.41 | -2.21 ± 0.47
47 | GGGCAGCAAUAUUACGGACC | -0.717 ± 0.25 | 0.0103 ± 0.36
48 | UAUGAGCAAUAUUACGACCG | -1.61 ± 0.4 | -1.53 ± 0.34
49 | UAAUAGCAAUAUUACGCACA | -0.694 ± 0.14 | -0.0269 ± 0.15
50 | UACUAGCAAUAUUACGUCUU | -2.11 ± 0.13 | -1.27 ± 0.14
51 | CAUAAGCAAUAUUACGAGUG | -2.76 ± 0.19 | -2.86 ± 0.2
52 | CAGCAGCAAUAUUACGAAGC | -4.28 ± 0.31 | –

Row | Sequence | self-splicing fitness (ln) (30 °C) | self-splicing fitness (ln) (37 °C)
53 | UGCAAGCAAUAUUACGGGUG | -0.825 ± 0.051 | -0.33 ± 0.065
54 | GUGGAGCAAUAUUACGUAGG | -3.17 ± 0.29 | -0.82 ± 0.24
55 | AUUUAGCAAUAUUACGUCAA | -3.4 ± 0.29 | -2.14 ± 0.34
56 | CCAGAGCAAUAUUACGCAAC | -4.18 ± 0.24 | -2.94 ± 0.12
57 | CCACAGCAAUAUUACGAGAA | -2.74 ± 0.26 | -3.69 ± 0.39
58 | AUUUAGCAAUAUUACGUGGU | -2.91 ± 0.18 | -2.45 ± 0.29
59 | GAUGAGCAAUAUUACGUGGC | -3.24 ± 0.22 | -2.59 ± 0.26
60 | UUCAAGCAAUAUUACGUUAC | -3.73 ± 0.36 | -2.72 ± 0.23
61 | CGCAAGCAAUAUUACGUUGG | -2.66 ± 0.096 | -1.02 ± 0.1
62 | CUUGAGCAAUAUUACGCCCU | – | -2.21 ± 0.46
63 | GCAAAGCAAUAUUACGUGAC | -2.78 ± 0.12 | -1.1 ± 0.13
64 | CCGAAGCAAUAUUACGGGUG | -0.732 ± 0.047 | -0.639 ± 0.061
65 | AAAUAGCAAUAUUACGGCUA | -0.705 ± 0.12 | -0.0895 ± 0.13
66 | CUAGAGCAAUAUUACGUUGA | -4.21 ± 0.34 | -3.11 ± 0.38
67 | AGAUAGCAAUAUUACGUCGG | -1.52 ± 0.14 | -1.26 ± 0.16
68 | AAACAGCAAUAUUACGGAAA | -3.16 ± 0.18 | -1.8 ± 0.13
69 | GCUAAGCAAUAUUACGCGCA | -0.989 ± 0.1 | -0.114 ± 0.12
70 | UUCCAGCAAUAUUACGUGAC | -2.56 ± 0.2 | -1.89 ± 0.21
71 | AGACAGCAAUAUUACGUAGC | -2.07 ± 0.19 | -2.14 ± 0.23
72 | CUUCAGCAAUAUUACGUAGA | -3.3 ± 0.19 | -2.92 ± 0.27
73 | UUAUAGCAAUAUUACGCUAA | -2.61 ± 0.24 | -2.34 ± 0.19
74 | UUCUAGCAAUAUUACGCACG | -1.26 ± 0.26 | -0.399 ± 0.3
75 | AGUAAGCAAUAUUACGCUGG | -3.89 ± 0.23 | -2.39 ± 0.22
76 | AUGCAGCAAUAUUACGAUCG | -1.8 ± 0.084 | -1.16 ± 0.11

Source: the supplement of paper PMC7877785
